Data published in article PMC8390553, “The DNA-binding protein CST associates with the cohesin complex and promotes chromosome cohesion” (The Journal of Biological Chemistry, 2021).
One block for each binder: values may come before it.

Molecular target: T1, STN1, endogenous (HeLa) (human (endogenous in HeLa), UniProt Q9H668 1-368)
T1 construct: STN1 (OBFC1), subunit of the CST complex, endogenous; also called OBFC1; source: endogenous, in fixed HeLa 1.2.11 cells
T1 sequence (looked up): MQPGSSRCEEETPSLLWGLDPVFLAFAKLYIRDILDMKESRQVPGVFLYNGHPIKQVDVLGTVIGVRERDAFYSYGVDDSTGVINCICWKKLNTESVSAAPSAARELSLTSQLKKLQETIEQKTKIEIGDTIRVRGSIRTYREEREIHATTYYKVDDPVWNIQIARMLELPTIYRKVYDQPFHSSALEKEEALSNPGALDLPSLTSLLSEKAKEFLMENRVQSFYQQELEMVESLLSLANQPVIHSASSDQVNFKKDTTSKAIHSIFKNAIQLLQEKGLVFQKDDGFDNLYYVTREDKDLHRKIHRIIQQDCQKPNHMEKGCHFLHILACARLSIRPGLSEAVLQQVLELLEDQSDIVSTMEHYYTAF
Assay: proximity ligation; fixed HeLa 1.2.11 cells, Duolink PLA kit, antibodies to the endogenous proteins (mouse α-STN1 with rabbit α-SMC3, α-PolA1 or α-MCM7); untreated cells, and for STN1 with SMC3 also after HU (2 mM, 2 h), APH (1 μM, 2 h) or CPT (1 μM, 1 h)
Conditions: partners not purified

PLA foci per cell (average): ~6 foci per cell
fold increase in PLA foci after HU, APH or CPT against untreated cells: ~2 fold
B1: SMC3, endogenous (HeLa) (natural protein, human (endogenous in HeLa), UniProt Q9UQE7 1-1217, looked up)
chain: MYIKQVIIQGFRSYRDQTIVDPFSSKHNVIVGRNGSGKSNFFYAIQFVLSDEFSHLRPEQRLALLHEGTGPRVISAFVEIIFDNSDNRLPIDKEEVSLRRVIGAKKDQYFLDKKMVTKNDVMNLLESAGFSRSNPYYIVKQGKINQMATAPDSQRLKLLREVAGTRVYDERKEESISLMKETEGKREKINELLKYIEERLHTLEEEKEELAQYQKWDKMRRALEYTIYNQELNETRAKLDELSAKRETSGEKSRQLRDAQQDARDKMEDIERQVRELKTKISAMKEEKEQLSAERQEQIKQRTKLELKAKDLQDELAGNSEQRKRLLKERQKLLEKIEEKQKELAETEPKFNSVKEKEERGIARLAQATQERTDLYAKQGRGSQFTSKEERDKWIKKELKSLDQAINDKKRQIAAIHKDLEDTEANKEKNLEQYNKLDQDLNEVKARVEELDRKYYEVKNKKDELQSERNYLWREENAEQQALAAKREDLEKKQQLLRAATGKAILNGIDSINKVLDHFRRKGINQHVQNGYHGIVMNNFECEPAFYTCVEVTAGNRLFYHIVDSDEVSTKILMEFNKMNLPGEVTFLPLNKLDVRDTAYPETNDAIPMISKLRYNPRFDKAFKHVFGKTLICRSMEVSTQLARAFTMDCITLEGDQVSHRGALTGGYYDTRKSRLELQKDVRKAEEELGELEAKLNENLRRNIERINNEIDQLMNQMQQIETQQRKFKASRDSILSEMKMLKEKRQQSEKTFMPKQRSLQSLEASLHAMESTRESLKAELGTDLLSQLSLEDQKRVDALNDEIRQLQQENRQLLNERIKLEGIITRVETYLNENLRKRLDQVEQELNELRETEGGTVLTATTSELEAINKRVKDTMARSEDLDNSIDKTEAGIKELQKSMERWKNMEKEHMDAINHDTKELEKMTNRQGMLLKKKEECMKKIRELGSLPQEAFEKYQTLSLKQLFRKLEQCNTELKKYSHVNKKALDQFVNFSEQKEKLIKRQEELDRGYKSIMELMNVLELRKYEAIQLTFKQVSKNFSEVFQKLVPGGKATLVMKKGDVEGSQSQDEGEGSGESERGSGSQSSVPSVDQFTGVGIRVSFTGKQGEMREMQQLSGGQKSLVALALIFAIQKCDPAPFYLFDEIDQALDAQHRKAVSDMIMELAVHAQFITTTFRPELLESADKFYGVKFRNKVSHIDVITAEMAKDFVEDDTTHG
notes: SMC3, core subunit of the cohesin complex, endogenous; also called cohesin subunit; source: endogenous, in fixed HeLa 1.2.11 cells

PLA foci per cell (average): 2.5 foci per cell
B2: PolA1, subunit of DNA polymerase α-primase, endogenous (HeLa) (natural protein, human (endogenous in HeLa), UniProt P09884 1-1462, looked up)
chain: MAPVHGDDSLSDSGSFVSSRARREKKSKKGRQEALERLKKAKAGEKYKYEVEDFTGVYEEVDEEQYSKLVQARQDDDWIVDDDGIGYVEDGREIFDDDLEDDALDADEKGKDGKARNKDKRNVKKLAVTKPNNIKSMFIACAGKKTADKAVDLSKDGLLGDILQDLNTETPQITPPPVMILKKKRSIGASPNPFSVHTATAVPSGKIASPVSRKEPPLTPVPLKRAEFAGDDVQVESTEEEQESGAMEFEDGDFDEPMEVEEVDLEPMAAKAWDKESEPAEEVKQEADSGKGTVSYLGSFLPDVSCWDIDQEGDSSFSVQEVQVDSSHLPLVKGADEEQVFHFYWLDAYEDQYNQPGVVFLFGKVWIESAETHVSCCVMVKNIERTLYFLPREMKIDLNTGKETGTPISMKDVYEEFDEKIATKYKIMKFKSKPVEKNYAFEIPDVPEKSEYLEVKYSAEMPQLPQDLKGETFSHVFGTNTSSLELFLMNRKIKGPCWLEVKSPQLLNQPVSWCKVEAMALKPDLVNVIKDVSPPPLVVMAFSMKTMQNAKNHQNEIIAMAALVHHSFALDKAAPKPPFQSHFCVVSKPKDCIFPYAFKEVIEKKNVKVEVAATERTLLGFFLAKVHKIDPDIIVGHNIYGFELEVLLQRINVCKAPHWSKIGRLKRSNMPKLGGRSGFGERNATCGRMICDVEISAKELIRCKSYHLSELVQQILKTERVVIPMENIQNMYSESSQLLYLLEHTWKDAKFILQIMCELNVLPLALQITNIAGNIMSRTLMGGRSERNEFLLLHAFYENNYIVPDKQIFRKPQQKLGDEDEEIDGDTNKYKKGRKKAAYAGGLVLDPKVGFYDKFILLLDFNSLYPSIIQEFNICFTTVQRVASEAQKVTEDGEQEQIPELPDPSLEMGILPREIRKLVERRKQVKQLMKQQDLNPDLILQYDIRQKALKLTANSMYGCLGFSYSRFYAKPLAALVTYKGREILMHTKEMVQKMNLEVIYGDTDSIMINTNSTNLEEVFKLGNKVKSEVNKLYKLLEIDIDGVFKSLLLLKKKKYAALVVEPTSDGNYVTKQELKGLDIVRRDWCDLAKDTGNFVIGQILSDQSRDTIVENIQKRLIEIGENVLNGSVPVSQFEINKALTKDPQDYPDKKSLPHVHVALWINSQGGRKVKAGDTVSYVICQDGSNLTASQRAYAPEQLQKQDNLTIDTQYYLAQQIHPVVARICEPIDGIDAVLIATWLGLDPTQFRVHHYHKDEENDALLGGPAQLTDEEKYRDCERFKCPCPTCGTENIYDNVFDGSGTDMEPSLYRCSNIDCKASPLTFTVQLSNKLIMDIRRFIKKYYDGWLICEEPTCRNRTRHLPLQFSRTGPLCPACMKATLQPEYSDKSLYTQLCFYRYIFDAECALEKLTTDHEKDKLKKQFFTPKVLQDYRKLKNTAEQFLSRSGYSEVNLSKLFAGCAVKS
notes: PolA1, subunit of DNA polymerase α-primase, endogenous; the subunit to which the PLA antibody was directed; The results name the partner as the complex DNA polymerase α-primase; the antibody of the PLA was against PolA1; source: endogenous, in fixed HeLa 1.2.11 cells
